Experimental data from PMC4528139.
Where “and” joins values, the source holds several entries; their conditions need not be identical. Equal entries are not always repeated.

Columns and labels:
[1] = biological target: 40007 (clade CRF01 A-E) gp140 trimer, Strep-tag approach (HIV-1 strain 40007); assay: not stated; trimers purified by the Strep-tag approach; manuscript in preparation
[2] = biological target: JRFL foldon-gp140 (uncleaved foldon trimer) (HIV-1 strain JRFL | bacteriophage T4); assay: SEC + native gel or EMSA
[3] = biological target: SF162 (clade B) gp140 trimer, Strep-tag approach (HIV-1 strain SF162); assay: not stated; trimers purified by the Strep-tag approach; manuscript in preparation
[4] = biological target: Strep-tagged BG505 CR gp140 (uncleaved) (HIV-1 strain BG505); assay: native gel or EMSA
[5] = biological target: Strep-tagged JRFL CP664-gp140 (cleaved trimer) (HIV-1 strain JRFL); assay: native gel or EMSA
[6] = biological target: Strep-tagged JRFL CP664-gp140 (cleaved trimer) (HIV-1 strain JRFL); assay: SEC + native gel or EMSA; Strep-Tactin-purified gp140 on Superdex 200 in 25 mM Tris-HCl pH 8, 150 mM NaCl; fractions on blue native PAGE; 293F- or GnTI−-produced
[7] = biological target: Strep-tagged JRFL CP664-gp140 (cleaved trimer) (HIV-1 strain JRFL); assay: negative stain EM
[8] = biological target: Strep-tagged JRFL CR664-gp140 (uncleaved) (HIV-1 strain JRFL); assay: native gel or EMSA
[9] = biological target: Strep-tagged JRFL CR664-gp140 (uncleaved) (HIV-1 strain JRFL); assay: SEC + native gel or EMSA; Strep-Tactin-purified gp140 on Superdex 200 in 25 mM Tris-HCl pH 8, 150 mM NaCl; fractions on blue native PAGE; 293F- or GnTI−-produced
[10] = biological target: Strep-tagged JRFL CR664-gp140 (uncleaved) (HIV-1 strain JRFL); assay: negative stain EM

40007 (clade CRF01 A-E) gp140 trimer, Strep-tag approach (natural protein)
stoichiometry N [1]: 3

JRFL foldon-gp140 (uncleaved foldon trimer)
stoichiometry N [2]: 3

SF162 (clade B) gp140 trimer, Strep-tag approach (natural protein)
stoichiometry N [3]: 3

Strep-tagged BG505 CR gp140 (uncleaved) (natural protein)
stoichiometry N [4]: 3

Strep-tagged JRFL CP664-gp140 (cleaved trimer) (complex)
stoichiometry N [5]: 3 | fold, fraction of gp140 recovered as trimers against uncleaved gp140 [6]: 3 fold and 5 fold | stoichiometry N [6]: 3 | stoichiometry N [7]: 3

Strep-tagged JRFL CR664-gp140 (uncleaved) (natural protein)
stoichiometry N [8]: 2 and 3 | stoichiometry N [9]: 3 | stoichiometry N [10]: 3
